For assay [1], the target named is T1, Flag-USP53 (of the GST pull-down) (UniProt Q70EK8 1-1073).
T1 construct: ubiquitin-specific peptidase 53 (USP53); If it came from transfected HEK-293T cells it would be the same construct as m1
T1 sequence (looked up): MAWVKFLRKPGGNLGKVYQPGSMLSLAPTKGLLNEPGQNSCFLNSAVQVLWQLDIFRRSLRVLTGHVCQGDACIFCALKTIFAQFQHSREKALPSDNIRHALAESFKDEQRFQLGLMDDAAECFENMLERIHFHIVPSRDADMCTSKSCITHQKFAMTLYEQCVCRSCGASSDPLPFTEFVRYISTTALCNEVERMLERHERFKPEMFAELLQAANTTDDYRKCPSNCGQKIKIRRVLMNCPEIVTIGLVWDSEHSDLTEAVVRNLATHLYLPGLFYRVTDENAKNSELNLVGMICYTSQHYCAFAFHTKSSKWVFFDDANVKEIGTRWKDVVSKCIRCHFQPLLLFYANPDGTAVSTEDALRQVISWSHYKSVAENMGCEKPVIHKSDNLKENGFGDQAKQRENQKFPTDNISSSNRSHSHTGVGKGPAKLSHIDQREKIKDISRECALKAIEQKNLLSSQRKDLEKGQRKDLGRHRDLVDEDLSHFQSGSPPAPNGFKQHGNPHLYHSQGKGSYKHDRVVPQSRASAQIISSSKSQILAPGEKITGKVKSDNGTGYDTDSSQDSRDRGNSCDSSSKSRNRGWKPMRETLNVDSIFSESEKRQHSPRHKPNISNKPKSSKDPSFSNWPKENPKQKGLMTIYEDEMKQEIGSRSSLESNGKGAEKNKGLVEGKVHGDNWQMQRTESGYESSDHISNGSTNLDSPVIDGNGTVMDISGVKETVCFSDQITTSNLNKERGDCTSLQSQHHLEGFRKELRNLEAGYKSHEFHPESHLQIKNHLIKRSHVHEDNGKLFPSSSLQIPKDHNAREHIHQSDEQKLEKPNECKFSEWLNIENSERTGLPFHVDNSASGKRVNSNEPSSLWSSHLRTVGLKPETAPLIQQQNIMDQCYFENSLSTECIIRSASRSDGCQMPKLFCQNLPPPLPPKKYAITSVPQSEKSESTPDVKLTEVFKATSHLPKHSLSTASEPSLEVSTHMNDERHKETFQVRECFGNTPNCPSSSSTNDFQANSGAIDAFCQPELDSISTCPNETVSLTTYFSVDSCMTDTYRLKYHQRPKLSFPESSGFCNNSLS
The experiment in a line: pull-down; purified GST-HA-CYCS on glutathione agarose, Flag-USP53 added; same method as for GST-HA-USP53 with Flag-CYCS. The note with it: both partners purified.

Assay [2] deals with T2, GST-HA-USP53 (UniProt Q70EK8 1-1073).
T2 construct: also called GST-HA-USP53 fusion protein; source: E. coli, purified
T2 sequence (looked up): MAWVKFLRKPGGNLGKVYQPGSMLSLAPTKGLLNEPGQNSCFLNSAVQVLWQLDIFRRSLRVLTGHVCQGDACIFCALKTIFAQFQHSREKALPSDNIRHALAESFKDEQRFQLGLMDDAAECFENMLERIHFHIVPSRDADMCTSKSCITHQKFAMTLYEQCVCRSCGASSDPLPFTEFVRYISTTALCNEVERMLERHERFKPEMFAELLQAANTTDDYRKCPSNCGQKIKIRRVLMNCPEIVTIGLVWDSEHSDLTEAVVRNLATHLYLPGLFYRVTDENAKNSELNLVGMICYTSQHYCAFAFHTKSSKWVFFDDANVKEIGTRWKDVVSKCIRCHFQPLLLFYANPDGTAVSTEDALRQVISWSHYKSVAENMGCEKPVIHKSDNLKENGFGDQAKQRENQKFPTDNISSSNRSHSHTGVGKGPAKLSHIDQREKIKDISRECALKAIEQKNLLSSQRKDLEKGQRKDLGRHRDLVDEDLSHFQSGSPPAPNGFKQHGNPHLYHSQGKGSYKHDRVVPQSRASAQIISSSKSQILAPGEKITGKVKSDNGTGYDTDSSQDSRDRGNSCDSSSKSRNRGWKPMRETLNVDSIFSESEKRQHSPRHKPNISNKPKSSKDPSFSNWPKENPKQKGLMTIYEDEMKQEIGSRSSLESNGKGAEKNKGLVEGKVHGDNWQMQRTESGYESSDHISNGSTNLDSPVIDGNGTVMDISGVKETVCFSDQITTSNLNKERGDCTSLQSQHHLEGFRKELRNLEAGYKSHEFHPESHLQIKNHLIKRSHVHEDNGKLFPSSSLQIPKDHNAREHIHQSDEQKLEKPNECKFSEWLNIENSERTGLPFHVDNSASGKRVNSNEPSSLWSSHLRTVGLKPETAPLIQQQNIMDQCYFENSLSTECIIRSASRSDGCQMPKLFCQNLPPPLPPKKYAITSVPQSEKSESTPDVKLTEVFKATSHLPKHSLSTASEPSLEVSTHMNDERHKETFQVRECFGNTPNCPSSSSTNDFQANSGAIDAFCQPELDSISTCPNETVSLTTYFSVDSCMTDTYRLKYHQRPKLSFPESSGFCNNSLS
The experiment in a line: pull-down; about 100 µg GST-HA-USP53 (or GST-HA) on 50 µL glutathione agarose, 3 washes with PBST, about 100 µg Flag-CYCS fusion protein added, overnight at 4 °C; eluted with 10 mM glutathione in PBS pH 8.0, immunoblot. The note with it: both partners purified.

B1: GST-HA-CYCS (natural protein)
chain: not shown
notes: cytochrome c (CYCS); plasmid provided by …; also called GST-HA-CYCS fusion protein; source: purified (same method as for GST-HA-USP53: E. coli)
As to B1, in assay [1], the binding result was “binds”.

B2: Flag-CYCS (natural protein)
chain: not shown
notes: cytochrome c (CYCS); plasmid provided by …; also called Flag-CYCS fusion protein; source: E. coli (plasmid transfected into E. coli)
For the molecule B2, the binding result in assay [2] is listed as “binds”.

The values above are taken from publication PMC9163188, “USP53 plays an antitumor role in hepatocellular carcinoma through deubiquitination of cytochrome c” (Oncogenesis, 2022).
